Data reported in paper PMC9963377.

Target: tetrameric CDV attachment protein H-ectodomain (strain A75/17), with N-terminal tetrameric GCN4 motif (canine distemper virus (strain A75/17))
Test: cryo-EM structure

Substance: tetrameric CDV attachment protein H-ectodomain (strain A75/17), with N-terminal tetrameric GCN4 motif (domain or fragment)
- stoichiometry N: 4
